Source: patent publication US20230111418A1 (TESARO, published 2023)

B1: exemplary humanized monoclonal anti-PD-1 antibody (human IGHG4*01 heavy chain with Ser to Pro hinge mutation at S228, human IGKC*01 kappa light chain; CDRs SEQ … (antibody, human IgG4 S228P, kappa, V domains shown)
VH: EVQLLESGGGLVQPGGSLRLSCAASGFTFSSYDMSWVRQAPGKGLEWVSTISGGGSYTYYQDSVKGRFTISRDNSKNTLYLQMNSLRAEDTAVYYCASPYYAMDYWGQGTTVTVSS
VL: DIQLTQSPSFLSAYVGDRVTITCKASQDVGTAVAWYQQKPGKAPKLLIYWASTLHTGVPSRFSGSGSGTEFTLTISSLQPEDFATYYCQHYSSYPWTFGQGTKLEIKR
modifications: N-glycosylation at asparagine residue 293 (SEQ ID NO: 3)
B2: PD-1-binding agent (comprising SEQ ID NOs: 1 and 2) (antibody, V domains shown)
VH: B1 VH
VL: B1 VL
notes: It is probably the same humanized IgG4 (S228P)/kappa antibody as m2

What was measured:
[1] = molecular target: T1, Human PD-1 on the cell surface (human, UniProt Q15116 25-288); test: cell-based or functional assay
[2] = molecular target: T1, Human PD-1 on the cell surface; test: cell-based or functional assay; remark: listed apart in the source
[3] = molecular target: T1, Human PD-1 on the cell surface; test: flow cytometry on CHO-K1 cells expressing human PD-1
[4] = molecular target: T2, Cynomolgus monkey PD-1 (SPR analyte/ligand; cynomolgus monkey PD-1 Fc fusion) (cynomolgus monkey, UniProt B0LAJ3 25-170); test: SPR
T2 construct: also called Cyno PD-1

[5] = molecular target: T3, Human PD-1 (SPR analyte/ligand; human PD-1 Fc fusion) (human, UniProt Q15116 25-167, limits assumed); test: SPR
T3 construct: not shown: Fc part of the fusion

[6] = molecular target: T4, Cynomolgus monkey PD-1 expressed on CHO-K1 cells (cynomolgus monkey, UniProt B0LAJ3 25-288); test: flow cytometry on CHO-K1 cells expressing cynomolgus monkey PD-1
T4 construct: also called Cyno PD-1; cell surface cynomolgus PD-1
T4 sequence (B0LAJ3 entry or part of it limits assumed): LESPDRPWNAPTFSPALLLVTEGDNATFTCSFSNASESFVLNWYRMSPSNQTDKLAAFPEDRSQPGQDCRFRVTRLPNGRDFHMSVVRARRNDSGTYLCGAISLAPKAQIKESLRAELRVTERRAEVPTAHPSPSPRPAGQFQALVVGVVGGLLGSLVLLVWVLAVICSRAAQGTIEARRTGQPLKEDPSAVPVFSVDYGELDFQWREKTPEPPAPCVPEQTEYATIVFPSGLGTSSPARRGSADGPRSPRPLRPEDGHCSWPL

T3 sequence (Q15116 25-167 limits assumed): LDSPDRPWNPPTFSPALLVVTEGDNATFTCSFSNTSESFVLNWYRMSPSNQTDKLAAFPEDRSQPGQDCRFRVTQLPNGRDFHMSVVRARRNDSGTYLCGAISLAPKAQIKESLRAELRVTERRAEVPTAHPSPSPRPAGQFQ
T2 sequence (B0LAJ3 entry or part of it limits assumed): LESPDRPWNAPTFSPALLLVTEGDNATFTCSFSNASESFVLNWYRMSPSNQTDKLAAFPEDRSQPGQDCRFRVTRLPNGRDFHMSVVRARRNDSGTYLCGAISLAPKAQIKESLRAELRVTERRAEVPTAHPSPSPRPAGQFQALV
T1 sequence (Q15116 25-288): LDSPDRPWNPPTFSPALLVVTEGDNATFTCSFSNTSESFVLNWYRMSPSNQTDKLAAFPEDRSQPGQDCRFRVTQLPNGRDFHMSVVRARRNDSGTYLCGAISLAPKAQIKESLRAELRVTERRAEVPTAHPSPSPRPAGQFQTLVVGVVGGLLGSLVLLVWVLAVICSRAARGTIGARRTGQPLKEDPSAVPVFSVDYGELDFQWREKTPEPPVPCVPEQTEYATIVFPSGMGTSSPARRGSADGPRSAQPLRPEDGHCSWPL

Binder | mean IL-2 stimulation ratio in fRO assay, Day 3, across all dose levels [1] [ratio] | IL-2 stimulation ratio in fRO assay, 1 mg/kg, Baseline (n=6) [2] [ratio] | IL-2 stimulation ratio in fRO assay, 1 mg/kg, Day 3 (n=6) [2] [ratio] | IL-2 stimulation ratio in fRO assay, 1 mg/kg, Day 15 (n=6) [2] [ratio] | IL-2 stimulation ratio in fRO assay, 1 mg/kg, Day 22 (n=2) [2] [ratio] | IL-2 stimulation ratio in fRO assay, 1 mg/kg, Day 29 (n=2) [2] [ratio] | IL-2 stimulation ratio in fRO assay, 3 mg/kg, Baseline (n=3) [2] [ratio] | IL-2 stimulation ratio in fRO assay, 3 mg/kg, Day 3 (n=3) [2] [ratio] | IL-2 stimulation ratio in fRO assay, 3 mg/kg, Day 15 (n=3) [2] [ratio] | IL-2 stimulation ratio in fRO assay, 10 mg/kg, Baseline (n=4) [2] [ratio] | IL-2 stimulation ratio in fRO assay, 10 mg/kg, Day 3 (n=3) [2] [ratio] | IL-2 stimulation ratio in fRO assay, 10 mg/kg, Day 15 (n=1) [2] [ratio] | EC50 [3] [nM] | Kd [4] [nM] | koff [4] [s⁻¹] | kon [4] [M⁻¹ s⁻¹] | Kd [5] [nM] | koff [5] [s⁻¹] | kon [5] [M⁻¹ s⁻¹] | EC50 [6] [nM]
B1 | 1 | 1.69 | 1.01 | 1 | 1.32 | 1.08 | 1.62 | 0.927 | 0.977 | 1.86 | 1.05 | 0.86 | – | – | – | – | – | – | – | –
B2 | – | – | – | – | – | – | – | – | – | – | – | – | 2 | 0.53 | 0.00023 | 430000 | 0.3 | 0.00017 | 570000 | 3.4
